Results as given in publication PMC4462945 (Molecular Biology of the Cell, 2015).

How the values were obtained:
Assay in all cases: pull-down
GST-FliI LRR (mouse) = molecular target: T1, GST-FliI LRR (mouse)
T1 sequence (Q9JJ28 whole entry, looked up): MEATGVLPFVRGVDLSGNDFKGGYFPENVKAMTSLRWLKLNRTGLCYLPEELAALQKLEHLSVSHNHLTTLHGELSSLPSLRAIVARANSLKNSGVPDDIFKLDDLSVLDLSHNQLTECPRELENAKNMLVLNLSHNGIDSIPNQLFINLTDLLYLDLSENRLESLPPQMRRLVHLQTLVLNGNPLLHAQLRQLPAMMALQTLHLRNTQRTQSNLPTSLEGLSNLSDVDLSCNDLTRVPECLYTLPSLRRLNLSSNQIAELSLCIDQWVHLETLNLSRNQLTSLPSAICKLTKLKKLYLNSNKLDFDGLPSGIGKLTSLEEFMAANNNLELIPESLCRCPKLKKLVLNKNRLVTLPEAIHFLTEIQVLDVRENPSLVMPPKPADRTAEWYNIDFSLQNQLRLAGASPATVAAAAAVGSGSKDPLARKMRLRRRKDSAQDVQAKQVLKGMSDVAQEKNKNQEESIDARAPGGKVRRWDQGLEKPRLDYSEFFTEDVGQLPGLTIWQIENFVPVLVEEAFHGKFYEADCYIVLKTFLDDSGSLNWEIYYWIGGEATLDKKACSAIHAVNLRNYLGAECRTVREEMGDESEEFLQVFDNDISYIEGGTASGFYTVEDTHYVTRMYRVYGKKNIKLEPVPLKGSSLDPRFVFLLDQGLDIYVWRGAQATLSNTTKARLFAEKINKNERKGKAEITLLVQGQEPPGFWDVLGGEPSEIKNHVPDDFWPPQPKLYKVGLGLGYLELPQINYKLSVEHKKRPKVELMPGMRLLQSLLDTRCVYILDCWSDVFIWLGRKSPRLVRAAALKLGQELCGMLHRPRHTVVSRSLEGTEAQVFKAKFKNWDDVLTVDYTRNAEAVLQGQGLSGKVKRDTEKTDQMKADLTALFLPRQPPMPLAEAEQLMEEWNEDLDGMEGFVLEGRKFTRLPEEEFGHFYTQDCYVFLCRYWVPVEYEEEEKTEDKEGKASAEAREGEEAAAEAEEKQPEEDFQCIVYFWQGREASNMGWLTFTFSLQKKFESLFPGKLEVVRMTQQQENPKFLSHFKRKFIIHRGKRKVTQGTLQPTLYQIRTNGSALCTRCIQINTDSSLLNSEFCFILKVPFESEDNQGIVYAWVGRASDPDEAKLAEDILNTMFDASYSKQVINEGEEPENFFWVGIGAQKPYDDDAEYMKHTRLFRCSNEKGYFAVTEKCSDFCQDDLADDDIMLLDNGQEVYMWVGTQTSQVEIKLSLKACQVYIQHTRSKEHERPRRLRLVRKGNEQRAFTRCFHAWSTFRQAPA

GST-FliI GLD 1–6 = molecular target: T2, GST-FliI GLD 1–6 (mouse, UniProt Q9JJ28 398-1271)
T2 sequence (looked up): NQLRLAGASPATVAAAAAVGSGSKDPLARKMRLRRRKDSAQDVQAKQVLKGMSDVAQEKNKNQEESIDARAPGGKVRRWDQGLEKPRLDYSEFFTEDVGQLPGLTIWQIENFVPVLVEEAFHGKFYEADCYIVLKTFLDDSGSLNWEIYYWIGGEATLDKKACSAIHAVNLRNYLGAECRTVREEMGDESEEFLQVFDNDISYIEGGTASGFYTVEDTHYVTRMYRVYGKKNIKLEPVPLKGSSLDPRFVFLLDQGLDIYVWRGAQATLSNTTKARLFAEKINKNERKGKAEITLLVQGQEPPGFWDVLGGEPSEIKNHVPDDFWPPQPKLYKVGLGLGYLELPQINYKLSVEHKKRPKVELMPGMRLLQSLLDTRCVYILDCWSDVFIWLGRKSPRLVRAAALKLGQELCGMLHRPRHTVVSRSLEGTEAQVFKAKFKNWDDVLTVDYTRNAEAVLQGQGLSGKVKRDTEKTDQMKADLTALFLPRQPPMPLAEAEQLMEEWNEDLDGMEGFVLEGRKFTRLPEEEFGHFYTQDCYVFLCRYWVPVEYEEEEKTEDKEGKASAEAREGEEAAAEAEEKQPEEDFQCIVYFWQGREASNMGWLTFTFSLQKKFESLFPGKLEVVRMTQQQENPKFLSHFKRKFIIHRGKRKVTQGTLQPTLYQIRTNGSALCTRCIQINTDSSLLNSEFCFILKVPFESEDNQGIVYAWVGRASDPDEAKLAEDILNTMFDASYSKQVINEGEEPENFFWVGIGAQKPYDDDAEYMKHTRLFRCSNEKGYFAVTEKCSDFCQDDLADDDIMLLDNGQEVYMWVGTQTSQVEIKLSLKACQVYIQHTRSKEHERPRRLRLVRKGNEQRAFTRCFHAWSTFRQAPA

GST-FliI GLD 2–6 = molecular target: T3, GST-FliI GLD 2–6 (mouse, UniProt Q9JJ28 619-1271)
T3 sequence (looked up): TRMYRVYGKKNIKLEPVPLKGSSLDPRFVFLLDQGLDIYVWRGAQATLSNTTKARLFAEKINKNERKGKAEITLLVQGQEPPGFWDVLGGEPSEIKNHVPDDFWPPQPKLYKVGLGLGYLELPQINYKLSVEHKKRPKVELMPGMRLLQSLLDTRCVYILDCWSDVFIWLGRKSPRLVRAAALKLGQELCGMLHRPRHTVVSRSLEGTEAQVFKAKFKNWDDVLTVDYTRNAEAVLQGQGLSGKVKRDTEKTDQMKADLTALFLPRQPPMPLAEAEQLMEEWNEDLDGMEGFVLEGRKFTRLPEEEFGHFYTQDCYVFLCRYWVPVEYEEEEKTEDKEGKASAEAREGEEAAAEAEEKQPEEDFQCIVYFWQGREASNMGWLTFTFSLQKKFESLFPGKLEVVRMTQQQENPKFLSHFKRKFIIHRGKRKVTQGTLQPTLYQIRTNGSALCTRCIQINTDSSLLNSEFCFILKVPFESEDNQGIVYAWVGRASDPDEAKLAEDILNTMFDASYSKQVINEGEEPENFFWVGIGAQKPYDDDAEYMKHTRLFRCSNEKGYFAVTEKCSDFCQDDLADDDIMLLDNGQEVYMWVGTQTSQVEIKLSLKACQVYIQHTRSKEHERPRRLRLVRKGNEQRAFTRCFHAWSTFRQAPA

Molecule: NMMIIA rods (residues 1338–1960) (from UniProt P35579 1338-1960) (domain or fragment)
- Kd (GST-FliI LRR (mouse)): 5070 nM

B1: NMMIIA rods (residues 1338–1960) (domain or fragment, UniProt P35579 1338-1960, looked up)
chain: KNSFREQLEEEEEAKHNLEKQIATLHAQVADMKKKMEDSVGCLETAEEVKRKLQKDLEGLSQRHEEKVAAYDKLEKTKTRLQQELDDLLVDLDHQRQSACNLEKKQKKFDQLLAEEKTISAKYAEERDRAEAEAREKETKALSLARALEEAMEQKAELERLNKQFRTEMEDLMSSKDDVGKSVHELEKSKRALEQQVEEMKTQLEELEDELQATEDAKLRLEVNLQAMKAQFERDLQGRDEQSEEKKKQLVRQVREMEAELEDERKQRSMAVAARKKLEMDLKDLEAHIDSANKNRDEAIKQLRKLQAQMKDCMRELDDTRASREEILAQAKENEKKLKSMEAEMIQLQEELAAAERAKRQAQQERDELADEIANSSGKGALALEEKRRLEARIAQLEEELEEEQGNTELINDRLKKANLQIDQINTDLNLERSHAQKNENARQQLERQNKELKVKLQEMEGTVKSKYKASITALEAKIAQLEEQLDNETKERQAACKQVRRTEKKLKDVLLQVDDERRNAEQYKDQADKASTRLKQLKRQLEEAEEEAQRANASRRKLQRELEDATETADAMNREVSSLKNKLRRGDLPFVVPRRMARKGAGDGSDEEVDGKADGAEAKPAE
- Kd (GST-FliI GLD 1–6): 146 nM
- Kd (GST-FliI GLD 2–6): 858 nM
